Starred links: 1 amine or outer side, 2 acyl side, 3 side chain; linkers in the order of their positions; H or OH if unused. Non-standard residues stand in square brackets, D forms with d. Groups on a side chain read outwards from the residue. No end group written: not given here. *: point of attachment. C16N3 = 16-azido-hexadecanoic acid, [N-]=[N+]=NCCCCCCCCCCCCCCCC(=O)*; C5N3 = 5-azido pentinoic acid, [N-]=[N+]=NCCCCC(=O)*; C18 diacid = O=C(O)CCCCCCCCCCCCCCCCC(=O)*; Lys(N3) = [N-]=[N+]=NCCCC[C@H](N)C(=O)O; γGlu = O=C(O)[C@H](CCC(=O)[*:2])N[*:1]; Met(O2) = CS(=O)(=O)CC[C@H](N)C(=O)O; Palmitoyl = CCCCCCCCCCCCCCCC(=O)*; AEEA = NCCOCCOCC(=O)O; Aib = CC(C)(N)C(=O)O
B1: PEP14 (peptide)
peptide: HXQGTFTSDKSKYLDERAAQDFVKWLLDT
modifications: D-Ser (s) at 2; Lys 10 K(γEγEC16); Lys 24 K(PEG2-C5N3); C-terminal amide
B2: PEP21 (peptide)
peptide: HXQGTFTSDKSKYLDXRAAQDFVQWLLDTKK
modifications: Aib (U) at 2 and 16; Lys 10 K(γEγEC16); Lys 31 K(PEG2PEG2-C5N3); C-terminal amide
B3: PEP17 (peptide)
peptide: H[dS]QGTFTSDK([γGlu-γGlu-Palmitoyl])SKYLDERAAK([AEEA-AEEA-C5N3])DFVQWLLDT-NH2
B4: PEP6 (peptide)
peptide: H[Aib]QGTFTSDK([γGlu-γGlu-Palmitoyl])SKYLD[Aib]RRAQDFVQWLLDT[Lys(N3)][γGlu]-NH2
modifications: N-terminus assumed
SMILES: CCCCCCCCCCCCCCCC(=O)N[C@@H](CCC(=O)N[C@@H](CCC(=O)NCCCC[C@H](NC(=O)[C@H](CC(=O)O)NC(=O)[C@H](CO)NC(=O)[C@@H](NC(=O)[C@H](Cc1ccccc1)NC(=O)[C@@H](NC(=O)CNC(=O)[C@H](CCC(N)=O)NC(=O)C(C)(C)NC(=O)[C@@H](N)Cc1c[nH]cn1)[C@@H](C)O)[C@@H](C)O)C(=O)N[C@@H](CO)C(=O)N[C@@H](CCCCN)C(=O)N[C@@H](Cc1ccc(O)cc1)C(=O)N[C@@H](CC(C)C)C(=O)N[C@@H](CC(=O)O)C(=O)NC(C)(C)C(=O)N[C@@H](CCCNC(=N)N)C(=O)N[C@@H](CCCNC(=N)N)C(=O)N[C@@H](C)C(=O)N[C@@H](CCC(N)=O)C(=O)N[C@@H](CC(=O)O)C(=O)N[C@@H](Cc1ccccc1)C(=O)N[C@H](C(=O)N[C@@H](CCC(N)=O)C(=O)N[C@@H](Cc1c[nH]c2ccccc12)C(=O)N[C@@H](CC(C)C)C(=O)N[C@@H](CC(C)C)C(=O)N[C@@H](CC(=O)O)C(=O)N[C@H](C(=O)N[C@@H](CCCCN=[N+]=[N-])C(=O)N[C@@H](CCC(N)=O)C(=O)O)[C@@H](C)O)C(C)C)C(=O)O)C(=O)O
B5: PEP20 (peptide)
peptide: H[Aib]QGTFTSDK([γGlu-γGlu-Palmitoyl])SKYLD[Aib]RAAQDFVQWLLDTKK([AEEA-C5N3])-NH2
B6: PEP26 (peptide)
peptide: H[dS]QGTFTSDYSKYLDERAAK([AEEA-AEEA-γGlu-C16N3])DFVQWLLDT-NH2
B7: PEP3 (peptide)
peptide: H[Aib]QGTFTSDK([γGlu-γGlu-Palmitoyl])SKYLD[Aib]RAAQDFV[Lys(N3)]WL[Met(O2)]KGRG-NH2
B8: PEP30 (peptide)
peptide: H[Aib]QGTFTSDYSKYLDARAAK([AEEA-AEEA-γGlu-C18 diacid])DFV[Lys(N3)]WL[Met(O2)]DT-NH2
B9: PEP1 (peptide)
peptide: H[dS]QGTFTSDK([γGlu-γGlu-Palmitoyl])SKYLDERAAQ[Lys(N3)]FVQWLLDT-NH2
B10: PEP13 (peptide)
peptide: H[dS]QGTFTSDK([γGlu-γGlu-Palmitoyl])SKYLDSRRAHDFV[Lys(N3)]WLLNT-NH2
modifications: N-terminus assumed
SMILES: CCCCCCCCCCCCCCCC(=O)N[C@@H](CCC(=O)N[C@@H](CCC(=O)NCCCC[C@H](NC(=O)[C@H](CC(=O)O)NC(=O)[C@H](CO)NC(=O)[C@@H](NC(=O)[C@H](Cc1ccccc1)NC(=O)[C@@H](NC(=O)CNC(=O)[C@H](CCC(N)=O)NC(=O)[C@@H](CO)NC(=O)[C@@H](N)Cc1c[nH]cn1)[C@@H](C)O)[C@@H](C)O)C(=O)N[C@@H](CO)C(=O)N[C@@H](CCCCN)C(=O)N[C@@H](Cc1ccc(O)cc1)C(=O)N[C@@H](CC(C)C)C(=O)N[C@@H](CC(=O)O)C(=O)N[C@@H](CO)C(=O)N[C@@H](CCCNC(=N)N)C(=O)N[C@@H](CCCNC(=N)N)C(=O)N[C@@H](C)C(=O)N[C@@H](Cc1c[nH]cn1)C(=O)N[C@@H](CC(=O)O)C(=O)N[C@@H](Cc1ccccc1)C(=O)N[C@H](C(=O)N[C@@H](CCCCN=[N+]=[N-])C(=O)N[C@@H](Cc1c[nH]c2ccccc12)C(=O)N[C@@H](CC(C)C)C(=O)N[C@@H](CC(C)C)C(=O)N[C@@H](CC(N)=O)C(=O)N[C@H](C(N)=O)[C@@H](C)O)C(C)C)C(=O)O)C(=O)O
B11: PEP29 (peptide)
peptide: HXQGTFTSDKSKYLDERAAQDFVXWLLDT
modifications: D-Ser (s) at 2; Lys 10 K(PEG2PEG2γEC18-OH); Nle(εN3) at 24; C-terminal amide
B12: PEP28 (peptide)
peptide: H[Aib]QGTFTSDYSKYLD[Aib]RAAQDFVQWLLDTKK([AEEA-AEEA-γGlu-C16N3])-NH2
modifications: N-terminus assumed
SMILES: CC(C)C[C@H](NC(=O)[C@H](Cc1c[nH]c2ccccc12)NC(=O)[C@H](CCC(N)=O)NC(=O)[C@@H](NC(=O)[C@H](Cc1ccccc1)NC(=O)[C@H](CC(=O)O)NC(=O)[C@H](CCC(N)=O)NC(=O)[C@H](C)NC(=O)[C@H](C)NC(=O)[C@H](CCCNC(=N)N)NC(=O)C(C)(C)NC(=O)[C@H](CC(=O)O)NC(=O)[C@H](CC(C)C)NC(=O)[C@H](Cc1ccc(O)cc1)NC(=O)[C@H](CCCCN)NC(=O)[C@H](CO)NC(=O)[C@H](Cc1ccc(O)cc1)NC(=O)[C@H](CC(=O)O)NC(=O)[C@H](CO)NC(=O)[C@@H](NC(=O)[C@H](Cc1ccccc1)NC(=O)[C@@H](NC(=O)CNC(=O)[C@H](CCC(N)=O)NC(=O)C(C)(C)NC(=O)[C@@H](N)Cc1c[nH]cn1)[C@@H](C)O)[C@@H](C)O)C(C)C)C(=O)N[C@@H](CC(C)C)C(=O)N[C@@H](CC(=O)O)C(=O)N[C@H](C(=O)N[C@@H](CCCCN)C(=O)N[C@@H](CCCCNC(=O)COCCOCCNC(=O)COCCOCCNC(=O)CC[C@H](NC(=O)CCCCCCCCCCCCCCCN=[N+]=[N-])C(=O)O)C(N)=O)[C@@H](C)O
B13: PEP27 (peptide)
peptide: H[dS]QGTFTSDYSKYLDERAAQK([AEEA-AEEA-γGlu-C16N3])FVQWLLDT-NH2
modifications: N-terminus assumed
SMILES: CC(C)C[C@H](NC(=O)[C@H](Cc1ccc(O)cc1)NC(=O)[C@H](CCCCN)NC(=O)[C@H](CO)NC(=O)[C@H](Cc1ccc(O)cc1)NC(=O)[C@H](CC(=O)O)NC(=O)[C@H](CO)NC(=O)[C@@H](NC(=O)[C@H](Cc1ccccc1)NC(=O)[C@@H](NC(=O)CNC(=O)[C@H](CCC(N)=O)NC(=O)[C@@H](CO)NC(=O)[C@@H](N)Cc1c[nH]cn1)[C@@H](C)O)[C@@H](C)O)C(=O)N[C@@H](CC(=O)O)C(=O)N[C@@H](CCC(=O)O)C(=O)N[C@@H](CCCNC(=N)N)C(=O)N[C@@H](C)C(=O)N[C@@H](C)C(=O)N[C@@H](CCC(N)=O)C(=O)N[C@@H](CCCCNC(=O)COCCOCCNC(=O)COCCOCCNC(=O)CC[C@H](NC(=O)CCCCCCCCCCCCCCCN=[N+]=[N-])C(=O)O)C(=O)N[C@@H](Cc1ccccc1)C(=O)N[C@H](C(=O)N[C@@H](CCC(N)=O)C(=O)N[C@@H](Cc1c[nH]c2ccccc12)C(=O)N[C@@H](CC(C)C)C(=O)N[C@@H](CC(C)C)C(=O)N[C@@H](CC(=O)O)C(=O)N[C@H](C(N)=O)[C@@H](C)O)C(C)C
B14: PEP2 (peptide)
peptide: H[Aib]QGTFTSDK([γGlu-γGlu-Palmitoyl])SKYLDERAAQDFV[Lys(N3)]WLLDGRG-NH2
B15: PEP25 (peptide)
peptide: HXQGTFTSDYSKYLDERAAQDFVKWLLDT
modifications: D-Ser (s) at 2; Lys 24 K(PEG2PEG2γE-C16N3); C-terminal amide
B16: PEP16 (peptide)
peptide: H[dS]QGTFTSDK([γGlu-γGlu-Palmitoyl])SKYLDERAAK([AEEA-C5N3])DFVQWLLDT-NH2
B17: PEP74 (peptide)
peptide: HXQGTFTSDKSKYLDERAAQDFVXWLLDT
modifications: D-Ser (s) at 2; Lys 10 K(γEγEC16); Nle(εN3) at 24; C-terminal amide
B18: PEP22 (peptide)
peptide: H[Aib]QGTFTSDK([γGlu-γGlu-Palmitoyl])SKYLD[Aib]RAAQDFV[Lys(N3)]WLLDTK[γGlu]-NH2
modifications: N-terminus assumed
SMILES: CCCCCCCCCCCCCCCC(=O)N[C@@H](CCC(=O)N[C@@H](CCC(=O)NCCCC[C@H](NC(=O)[C@H](CC(=O)O)NC(=O)[C@H](CO)NC(=O)[C@@H](NC(=O)[C@H](Cc1ccccc1)NC(=O)[C@@H](NC(=O)CNC(=O)[C@H](CCC(N)=O)NC(=O)C(C)(C)NC(=O)[C@@H](N)Cc1c[nH]cn1)[C@@H](C)O)[C@@H](C)O)C(=O)N[C@@H](CO)C(=O)N[C@@H](CCCCN)C(=O)N[C@@H](Cc1ccc(O)cc1)C(=O)N[C@@H](CC(C)C)C(=O)N[C@@H](CC(=O)O)C(=O)NC(C)(C)C(=O)N[C@@H](CCCNC(=N)N)C(=O)N[C@@H](C)C(=O)N[C@@H](C)C(=O)N[C@@H](CCC(N)=O)C(=O)N[C@@H](CC(=O)O)C(=O)N[C@@H](Cc1ccccc1)C(=O)N[C@H](C(=O)N[C@@H](CCCCN=[N+]=[N-])C(=O)N[C@@H](Cc1c[nH]c2ccccc12)C(=O)N[C@@H](CC(C)C)C(=O)N[C@@H](CC(C)C)C(=O)N[C@@H](CC(=O)O)C(=O)N[C@H](C(=O)N[C@@H](CCCCN)C(=O)N[C@@H](CCC(N)=O)C(=O)O)[C@@H](C)O)C(C)C)C(=O)O)C(=O)O
B19: PEP11 (peptide)
peptide: HXQGTFTSDKSKYLDERAAQDFVXWLLXT
modifications: D-Ser (s) at 2; Lys 10 K(γEγEC16); Nle(εN3) at 24; γE at 28; C-terminal amide

biological target: human glucagon receptor (human, UniProt P47871 26-477); assay: cell-based or functional assay

| Binder | hGCGR_EC50 (cAMP activity assay) [nM] |
| --- | --- |
| B1 | 0.05 |
| B2 | 0.08 |
| B3 | 0.06 |
| B4 | 0.07 |
| B5 | 0.1 |
| B6 | 0.12 |
| B7 | 0.07 |
| B8 | 2.27 |
| B9 | 0.01 |
| B10 | 0.04 |
| B11 | 3.26 |
| B12 | 0.17 |
| B13 | 0.39 |
| B14 | 0.11 |
| B15 | 0.04 |
| B16 | 0.05 |

biological target: human GLP-1 receptor (human, UniProt P43220 24-463); assay: cell-based or functional assay

| Binder | hGLP1R EC50 (cAMP activity assay) [nM] |
| --- | --- |
| B1 | 0.07 |
| B2 | 0.07 |
| B17 | 0.05 |
| B3 | 0.05 |
| B4 | 0.17 |
| B5 | 0.05 |
| B6 | 0.12 |
| B8 | 0.5 |
| B10 | 0.1 |
| B11 | 3.28 |
| B12 | 0.16 |
| B13 | 0.06 |
| B18 | 0.07 |
| B15 | 0.05 |
| B19 | 0.06 |
| B16 | 0.06 |

From patent US20190175744A1 (Merck Sharp & Dohme, published 2019)
